Data as given in US20230203162A1 (NUMAB THERAPEUTICS, published 2023).

How the values were obtained:
[1] = target: T1, recombinant human MSLN (purchased from Peprotech) (human, UniProt Q13421 296-598, limits assumed); assay: SPR, MSLN immobilized on CM5, scFv as analyte, 1:1 Langmuir
T1 construct: Bought protein; also called recombinant human mesothelin

[2] = target: T2, plasma-membranous human MSLN on cell lines (H226, HPAC, H292, OVCAR-3, MeT-5A) (human, UniProt Q13421 296-598); assay: cELISA on H226 cells, HRP-Protein L
T2 construct: whole, on cells; also called human MSLN on H226 cells; mesothelin on target cells

[3] = target: biotinylated MSLN (human MSLN in the MSLN/MUC16 competition ELISA) (human, UniProt Q13421 296-598, limits assumed, biotinylated); assay: competition ELISA, scFv titrated with biotinylated MSLN; competitor coated MUC16
[4] = target: T2, plasma-membranous human MSLN on cell …; assay: flow cytometry on H226 cells, protein L-PE, 4PL fit
[5] = target: T3, human recombinant CD3ε protein (Sino Biological) (human, UniProt P07766 23-126); assay: SPR, CD3ε amine-coupled to CM5, antibody injected
T3 construct: Bought protein; also called recombinant human CD3ε; human CD3ε

[6] = target: T2, plasma-membranous human MSLN on cell …; assay: flow cytometry on OVCAR-3 cells, protein L-PE, 4PL fit
[7] = target: T2, plasma-membranous human MSLN on cell …; assay: flow cytometry on Met-5A cells, protein L-PE, 4PL fit
[8] = target: T1, recombinant human MSLN (purchased from …); assay: SPR (Biacore T200), human MSLN; which of the two formats (MSLN immobilized / antibody captured) not given
[9] = target: human serum albumin (hSA, Sigma-Aldrich A3782) (human, UniProt P02768 25-609); assay: SPR, hSA amine-coupled to CM5, antibody injected, pH 5.5, 1:1 Langmuir
[10] = target: soluble mesothelin (sMSLN); assay: cell-based or functional assay
[11] = target: T2, plasma-membranous human MSLN on cell …; assay: cell-based or functional assay

Row | Binder | Kd [1] | koff [1] | kon [1] | EC50 [2] | rel. EC50 (EC50, Amatuximab/EC50, scFv) [2] | rel. Maximum binding (OD450-690 nm, scFv/OD450-690 nm, Amatuximab) [2] | IC50 [3] | Maximum inhibition at highest sample conc. [3] | rel. IC50 (IC50, Amatuximab/IC50, scFv) [3] | EC50 [4] | max. binding (MFI) [4] | Kd [5] | EC50 [6] | max. binding (MFI) [6] | EC50 [7] | max. binding (MFI) [7] | Kd [9] | koff [9] | kon [9] | further results
1 | anti-MSLN scFv PRO2306 (scFv, also called 54-32-A07-sc06; PRO1925-S14R-T87R-T22K) scFv: ALQMTQSPSSLSARVGDRVTIKCQASQSISNYLAWYQQKPGKPPKFLIYDASDLASGVPSRFSGSGSGRDFTLTISSLQPEDFATYYCQQVYDSNNVENVFGTGTKVTVLGGGGGSGGGGSGGGGSGGGGSQSQLVESGGGLVQPGGSLRLSCAVSGFSLSSYAMGWVRQAPGKGLEYIGYISKIGTTYYASWAKGRFTISKDNSKNTVYLQMNSLRAEDTAVYFCARGSSSGGYLDDGFDPWGQGTLVTVSS | 0.322 nM | 0.000873 s⁻¹ | 2.72e+06 M⁻¹ s⁻¹ | 3.05 nM | 0.026 ratio | 0.55 ratio |  |  |  |  |  |  |  |  |  |  |  |  |  | 
2 | anti-MSLN scFv PRO1922 (scFv, also called 54-21-H03-sc01) scFv: DIQMTQSPSSLSASVGDRVTITCQASESIYSSLAWYQQKPGKAPKLLIYLASTLASGVPSRFSGSGSGTDFTLTISSLQPEDFATYYCQSTDYTTSTHRNSFGTGTKVTVLGGGGGSGGGGSGGGGSGGGGSEVQLVESGGGLVQPGGSLRLSCAASGFSFSTTYYMCWVRQAPGKGLEWIGCTNTASSVRTYYATWAKGRFTISRDNSKNTVYLQMNSLRAEDTAVYYCARDMGFADYALNLWGQGTLVTVSS | 0.177 nM | 0.00013 s⁻¹ | 735000 M⁻¹ s⁻¹ | 0.29 nM | 0.52 ratio | 0.61 ratio | 0.05 nM | 99.3% | 0.29 ratio |  |  |  |  |  |  |  |  |  |  | 
3 | PRO2660 (MATCH4) (other, Heterodimer) chain 1: DIQMTQSPSSLSASVGDRVTITCQASESIYSSLAWYQQKPGKAPKLLIYLASTLASGVPSRFSGSGSGTDFTLTISSLQPEDFATYYCQSTDYTTSTHRNSFGTGTKVTVLGGGGGSGGGGSGGGGSGGGGSEVQLVESGGGLVQPGGSLRLSCAASGFSFSTTYYMCWVRQAPGKGLEWIGCTNTASSVRTYYATWAKGRFTISRDNSKNTVYLQMNSLRAEDTAVYYCARDMGFADYALNLWGQGTLVTVSSGGGGSGGGGSEVQLVESGGGLVQPGGSLRLSCAASGFSLSSYDMSWVRQAPGKGLAWIGASYASGPTYYASWAKGRFTISRDNSKNTVYLQMNSLRAEDTATYFCARGGWTGTSHSNIWGQGTLVTVSSGGGSGGGSGGGSGEVQLVESGGGLVQPGGSLRLSCAASGFSLSSYAMNWVRQAPGKCLEWIGHINAGDIAYYATWAKGRFTISRDNSKNTVYLQMNSLRAEDTAVYFCARGAGGFSTGPFKLWGQGTLVTVSS chain 2: DIQMTQSPSSLSASVGDRVTITCQASESIYSSLAWYQQKPGKAPKLLIYLASTLASGVPSRFSGSGSGTDFTLTISSLQPEDFATYYCQSTDYTTSTHRNSFGTGTKVTVLGGGGGSGGGGSGGGGSGGGGSEVQLVESGGGLVQPGGSLRLSCAASGFSFSTTYYMCWVRQAPGKGLEWIGCTNTASSVRTYYATWAKGRFTISRDNSKNTVYLQMNSLRAEDTAVYYCARDMGFADYALNLWGQGTLVTVSSGGGGSGGGGSAFELTQSPSSLSASVGDRVTITCQASESINSRLAWYQQKPGQPPKLLIYDASDLTSGVPSRFSGSGSGTDFTLTISSLQPEDFATYYCQGYGGSSTTTFGCGTKLTVLGGGSGGSDIQMTQSPSSLSASVGDRVTITCQSSQSVFSNNYLAWFQQKPGQSPKRLIYSASTLASGVPSRFSGSGSGTDFTLTISSLQPEDFATYYCLGSYACSSADCYVFGTGTKVTVLG |  |  |  |  |  |  |  |  |  | 1.08 nM | 686000 MFI | 5.71 nM | 10.7 nM | 198000 MFI | 0.157 nM | 14500 MFI | 5.71 nM | 0.0016 s⁻¹ | 280000 M⁻¹ s⁻¹ | Delta 0-50 ng/mL sMSLN (x-fold change in H226 killing potency) [10]: 12 fold; Delta 0-500 ng/mL sMSLN (x-fold change in H226 killing potency) [10]: 85.1 fold; Fold-diff Window (mean Met-5A EC50 / mean H226 EC50) [11]: 1.7 fold; average mean H226 EC50, cell killing (LDH release) [11]: 0.0285 nM; average mean Met-5A EC50, cell killing (LDH release) [11]: 0.0485 nM

More lines, main results first:

Row | Kd [1] | koff [1] | kon [1] | EC50 [2] | rel. EC50 (EC50, Amatuximab/EC50, scFv) [2] | rel. Maximum binding (OD450-690 nm, scFv/OD450-690 nm, Amatuximab) [2] | IC50 [3] | Maximum inhibition at highest sample conc. [3] | rel. IC50 (IC50, Amatuximab/IC50, scFv) [3] | EC50 [4] | max. binding (MFI) [4] | Kd [5] | EC50 [6] | max. binding (MFI) [6] | EC50 [7] | max. binding (MFI) [7] | Kd [9] | koff [9] | kon [9] | Binder | further results
4 | 0.488 nM | 0.000794 s⁻¹ | 1.63e+06 M⁻¹ s⁻¹ | 1.01 nM | 0.11 ratio | 0.58 ratio | 0.14 nM | 99.2% | 0.11 ratio |  |  |  |  |  |  |  |  |  |  | anti-MSLN scFv PRO1925 (scFv, also called 54-32-A07-sc02) scFv: ALQMTQSPSSLSASVGDRVTITCQASQSISNYLAWYQQKPGKPPKFLIYDASDLASGVSSRFSGSGSGTDFTLTISSLQPEDFATYYCQQVYDSNNVENVFGTGTKVTVLGGGGGSGGGGSGGGGSGGGGSQSQLVESGGGLVQPGGSLRLSCAVSGFSLSSYAMGWVRQAPGKGLEYIGYISKIGTTYYASWAKGRFTISKDNSKNTVYLQMNSLRAEDTAVYFCARGSSSGGYLDDGFDPWGQGTLVTVSS | 
5 | 0.444 nM | 0.00138 s⁻¹ | 3.11e+06 M⁻¹ s⁻¹ | 1.13 nM | 0.07 ratio | 0.78 ratio |  |  |  |  |  |  |  |  |  |  |  |  |  | anti-MSLN scFv PRO2309 (scFv, VL/VH interdomain disulfide variant; also called 54-32-A07-sc09; PRO1925-S14R-T87R-T22K-DIS) scFv: ALQMTQSPSSLSARVGDRVTIKCQASQSISNYLAWYQQKPGKPPKFLIYDASDLASGVPSRFSGSGSGRDFTLTISSLQPEDFATYYCQQVYDSNNVENVFGCGTKVTVLGGGGGSGGGGSGGGGSGGGGSQSQLVESGGGLVQPGGSLRLSCAVSGFSLSSYAMGWVRQAPGKCLEYIGYISKIGTTYYASWAKGRFTISKDNSKNTVYLQMNSLRAEDTAVYFCARGSSSGGYLDDGFDPWGQGTLVTVSS | 
6 |  |  |  |  |  |  |  |  |  | 0.447 nM | 609000 MFI | 6.45 nM | 5.55 nM | 148000 MFI | 0.0877 nM | 12000 MFI | 6.45 nM | 0.00149 s⁻¹ | 231000 M⁻¹ s⁻¹ | PRO2562 (MATCH4) (other, Heterodimer) chain 1: ALQMTQSPSSLSARVGDRVTIKCQASQSISNYLAWYQQKPGKPPKFLIYDASDLASGVPSRFSGSGSGRDFTLTISSLQPEDFATYYCQQVYDSNNVENVFGCGTKVTVLGGGGGSGGGGSGGGGSGGGGSQSQLVESGGGLVQPGGSLRLSCAVSGFSLSSYAMGWVRQAPGKCLEYIGYISKIGTTYYASWAKGRFTISKDNSKNTVYLQMNSLRAEDTAVYFCARGSSSGGYLDDGFDPWGQGTLVTVSSGGGGSGGGGSEVQLVESGGGLVQPGGSLRLSCAASGFSLSSYDMSWVRQAPGKGLAWIGASYASGPTYYASWAKGRFTISRDNSKNTVYLQMCSLRAEDTATYFCARGGWTGTSHSNIWGQGTLVTVSSGGGSGGGSGGGSGEVQLVESGGGLVQPGGSLRLSCAASGFSLSSYAMNWVRQAPGKCLEWIGHINAGDIAYYATWAKGRFTISRDNSKNTVYLQMNSLRAEDTAVYFCARGAGGFSTGPFKLWGQGTLVTVSS chain 2: ALQMTQSPSSLSARVGDRVTIKCQASQSISNYLAWYQQKPGKPPKFLIYDASDLASGVPSRFSGSGSGRDFTLTISSLQPEDFATYYCQQVYDSNNVENVFGCGTKVTVLGGGGGSGGGGSGGGGSGGGGSQSQLVESGGGLVQPGGSLRLSCAVSGFSLSSYAMGWVRQAPGKCLEYIGYISKIGTTYYASWAKGRFTISKDNSKNTVYLQMNSLRAEDTAVYFCARGSSSGGYLDDGFDPWGQGTLVTVSSGGGGSGGGGSAFELTQSPSSLSASVGDRVTITCQASESINSRLAWYQQKPGQPPKLLIYDASDLTSGVPSRFSGSGSGTDFTLTISCLQPEDFATYYCQGYGGSSTTTFGCGTKLTVLGGGSGGSGGSGGSGDIQMTQSPSSLSASVGDRVTITCQSSQSVFSNNYLAWFQQKPGQSPKRLIYSASTLASGVPSRFSGSGSGTDFTLTISSLQPEDFATYYCLGSYACSSADCYVFGTGTKVTVLG | Kd [8]: 1.39 nM; koff [8]: 0.000571 s⁻¹; kon [8]: 410000 M⁻¹ s⁻¹
